From patent publication US20030206886A1 (UNIVERSITY OF MEDICINE AND DENTISTRY OF NEW JERSEY, published 2003) come the findings set out here.

Experiment [1] addresses T1, murine IL-4 receptor IgG immunoadhesin (murine, UniProt P16382 26-233).
T1 construct: Tested as concentrated supernatant of vaccinia-infected cells; also called murine IL-4 receptor immunoadhesin; mIL-4R IgG immunoadhesin; not shown: IgG backbone
T1 sequence (looked up): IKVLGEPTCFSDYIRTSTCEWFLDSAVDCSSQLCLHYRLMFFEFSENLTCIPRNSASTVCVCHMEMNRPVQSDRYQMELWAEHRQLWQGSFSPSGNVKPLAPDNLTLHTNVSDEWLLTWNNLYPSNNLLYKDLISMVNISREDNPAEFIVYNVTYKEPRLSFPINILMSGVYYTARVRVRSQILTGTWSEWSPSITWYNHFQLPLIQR
The experiment is described as follows: bead depletion assay (immunoadhesin on beads, unbound hIL-10 in filtrate by ELISA), FIG. 1 top. On the technique in general: An ELISA detects its analyte on a solid surface through an enzyme-linked reagent.

The target in experiment [2] is T2, murine IL-10 receptor IgG immunoadhesin (murine, UniProt Q61727 17-241).
T2 construct: Used as specificity control; also called murine IL-10 R immunoadhesin; murine IL-10 receptor immunoadhesin; not shown: IgG backbone
T2 sequence (looked up): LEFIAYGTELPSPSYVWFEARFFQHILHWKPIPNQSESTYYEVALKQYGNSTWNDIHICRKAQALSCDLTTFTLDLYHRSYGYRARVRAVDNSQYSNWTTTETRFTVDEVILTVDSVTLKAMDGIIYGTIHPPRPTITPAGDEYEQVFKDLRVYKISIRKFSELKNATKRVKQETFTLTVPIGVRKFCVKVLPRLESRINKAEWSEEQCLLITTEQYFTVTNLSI
The experiment is described as above.

In experiment [3] the target is T3, human IL-10 receptor IgG immunoadhesin (human, UniProt Q13651 22-235).
T3 construct: extracellular domain; Tested as concentrated supernatant of cells infected with recombinant vaccinia; also called human IL-10R adhesin; human IL-10 R adhesin; not shown: human IgG1 heavy chain hinge, CH2 and CH3 domains, amplified from ARH-77 cDNA; joined through a SalI site; residue limit
T3 sequence (looked up): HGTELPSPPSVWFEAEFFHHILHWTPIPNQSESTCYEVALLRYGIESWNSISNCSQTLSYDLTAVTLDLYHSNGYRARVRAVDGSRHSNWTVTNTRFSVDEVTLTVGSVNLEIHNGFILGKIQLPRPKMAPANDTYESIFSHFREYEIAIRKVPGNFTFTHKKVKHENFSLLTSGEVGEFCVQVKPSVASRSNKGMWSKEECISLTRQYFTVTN
Kind of experiment: bead depletion assay, unbound hIL-10 by ELISA, FIG. 1 top.

Experiment [4] has as its target T4, human IL-10 receptor immunoadhesin (isotype not stated, control of FIG. 3 bottom) (human, UniProt Q13651 22-235).
T4 construct: extracellular domain; not shown: human IgG1 or IgA1 hinge-CH2-CH3
T4 sequence (looked up): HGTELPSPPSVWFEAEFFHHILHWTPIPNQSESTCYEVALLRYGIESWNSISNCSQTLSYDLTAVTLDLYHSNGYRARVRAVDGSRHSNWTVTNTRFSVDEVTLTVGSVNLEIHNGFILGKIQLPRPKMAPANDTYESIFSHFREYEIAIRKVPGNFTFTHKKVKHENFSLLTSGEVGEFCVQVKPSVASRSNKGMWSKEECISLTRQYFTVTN
Kind of experiment: ELISA inhibition, FIG. 3 bottom.

Experiment [5] concerns the target T2, murine IL-10 receptor IgG immunoadhesin. The experiment is described as follows: bead depletion assay, FIG. 3 top.

B1: human IL-10 (ligand, UniProt P22301 19-178, looked up)
chain: SPGQGTQSENSCTHFPGNLPNMLRDLRDAFSRVKTFFQMKDQLDNLLLKESLLEDFKGYLGCQALSEMIQFYLEEVMPQAENQDPDIKAHVNSLGENLKTLRLRLRRCHRFLPCENKSKAVEQVKNAFNKLQEKGIYKAMSEFDIFINYIEAYMTMKIRN
notes: also called hIL-10
Regarding B1, the figures for the binding result in experiment [1], in experiment [2] and in experiment [3] were “no binding (tested: 250 µl of 200 pg/100 µl of hIL-10)”, “no binding (tested: 250 µl of 200 pg/100 µl of hIL-10)” and “binds”, respectively.

B2: murine IL-4 (ligand, UniProt P07750 21-140, looked up)
chain: HIHGCDKNHLREIIGILNEVTGEGTPCTEMDVPNVLTATKNTTESELVCRASKVLRIFYLKHGKTPCLKKNSSVLMELQRLFRAFRCLDSSISCTMNESKSTSLKDFLESLKSIMQMDYS
notes: also called mIL-4
As to B2, the binding result in experiment [4] is “no binding”; in experiment [5], “no binding (tested: 250 µl of 200 pg/100 µl of mIL-4)”.
